Reference: article PMC3223026 (Journal of molecular biology, 2011)
Like-named read-outs stand apart in the source and are kept apart here.

B1: bacteriophage φ6 protein P1 (capsid shell), wild type (natural protein, UniProt P11126 1-769, looked up)
chain: MFNLKVKDLNGSARGLTQAFAIGELKNQLSVGALQLPLQFTRTFSASMTSELLWEVGKGNIDPVMYARLFFQYAQAGGALSVDELVNQFTEYHQSTACNPEIWRKLTAYITGSSNRAIKADAVGKVPPTAILEQLRTLAPSEHELFHHITTDFVCHVLSPLGFILPDAAYVYRVGRTATYPNFYALVDCVRASDLRRMLTALSSVDSKMLQATFKAKGALAPALISQHLANAATTAFERSRGNFDANAVVSSVLTILGRLWSPSTPKELDPSARLRNTNGIDQLRSNLALFIAYQDMVKQRGRAEVIFSDEELSSTIIPWFIEAMSEVSPFKLRPINETTSYIGQTSAIDHMGQPSHVVVYEDWQFAKEITAFTPVKLANNSNQRFLDVEPGISDRMSATLAPIGNTFAVSAFVKNRTAVYEAVSQRGTVNSNGAEMTLGFPSVVERDYALDRDPMVAIAALRTGIVDESLEARASNDLKRSMFNYYAAVMHYAVAHNPEVVVSEHQGVAAEQGSLYLVWNVRTELRIPVGYNAIEGGSIRTPEPLEAIAYNKPIQPSEVLQAKVLDLANHTTSIHIWPWHEASTEFAYEDAYSVTIRNKRYTAEVKEFELLGLGQRRERVRILKPTVAHAIIQMWYSWFVEDDRTLAAARRTSRDDAEKLAIDGRRMQNAVTLLRKIEMIGTTGIGASAVHLAQSRIVDQMAGRGLIDDSSDLHVGINRHRIRIWAGLAVLQMMGLLSRSEAEALTKVLGDSNALGMVVATTDIDPSL
B2: bacteriophage φ6 protein P1 with the E390A substitution (natural protein, UniProt P11126 1-769, looked up)
chain: MFNLKVKDLNGSARGLTQAFAIGELKNQLSVGALQLPLQFTRTFSASMTSELLWEVGKGNIDPVMYARLFFQYAQAGGALSVDELVNQFTEYHQSTACNPEIWRKLTAYITGSSNRAIKADAVGKVPPTAILEQLRTLAPSEHELFHHITTDFVCHVLSPLGFILPDAAYVYRVGRTATYPNFYALVDCVRASDLRRMLTALSSVDSKMLQATFKAKGALAPALISQHLANAATTAFERSRGNFDANAVVSSVLTILGRLWSPSTPKELDPSARLRNTNGIDQLRSNLALFIAYQDMVKQRGRAEVIFSDEELSSTIIPWFIEAMSEVSPFKLRPINETTSYIGQTSAIDHMGQPSHVVVYEDWQFAKEITAFTPVKLANNSNQRFLDVAPGISDRMSATLAPIGNTFAVSAFVKNRTAVYEAVSQRGTVNSNGAEMTLGFPSVVERDYALDRDPMVAIAALRTGIVDESLEARASNDLKRSMFNYYAAVMHYAVAHNPEVVVSEHQGVAAEQGSLYLVWNVRTELRIPVGYNAIEGGSIRTPEPLEAIAYNKPIQPSEVLQAKVLDLANHTTSIHIWPWHEASTEFAYEDAYSVTIRNKRYTAEVKEFELLGLGQRRERVRILKPTVAHAIIQMWYSWFVEDDRTLAAARRTSRDDAEKLAIDGRRMQNAVTLLRKIEMIGTTGIGASAVHLAQSRIVDQMAGRGLIDDSSDLHVGINRHRIRIWAGLAVLQMMGLLSRSEAEALTKVLGDSNALGMVVATTDIDPSL

What was measured:
Assay in all cases: cryo-EM structure
[1] = target: B2
[2] = target: B1
cryo-EM structure [3] = target: the molecule itself
cryo-EM structure [4] = target: the molecule itself; remark: listed apart in the source

| Binder | binding result [1] | binding result [2] | binding result (cryo-EM structure [3]) | binding result (cryo-EM structure [4]) |
| --- | --- | --- | --- | --- |
| bacteriophage φ6 protein P4 (packaging motor, packaging NTPase) (enzyme, UniProt P11125 1-332, looked up) MPIVVTQAHIDRVGIAADLLDASPVSLQVLGRPTAINTVVIKTYIAAVMELASKQGGSLAGVDIRPSVLLKDTAIFTKPKAKSADVESDVDVLDTGIYSVPGLARKPVTHRWPSEGIYSGVTALMGATGSGKSITLNEKLRPDVLIRWGEVAEAYDELDTAVHISTLDEMLIVCIGLGALGFNVAVDSVRPLLFRLKGAASAGGIVAVFYSLLTDISNLFTQYDCSVVMVVNPMVDAEKIEYVFGQVMASTVGAILCADGNVSRTMFRTNKGRIFNGAAPLAADTHMPSMDRPTSMKALDHTSIASVAPLERGSVDTDDRNSAPRRGANFSL | binds | binds | binds | – |
| B1 | – | – | binds | – |
| B2 | – | – | – | binds |
| bacteriophage φ6 protein P2 (RNA-dependent RNA polymerase) (enzyme, UniProt P11124 1-665, looked up) MPRRAPAFPLSDIKAQMLFANNIKAQQASKRSFKEGAIETYEGLLSVDPRFLSFKNELSRYLTDHFPANVDEYGRVYGNGVRTNFFGMRHMNGFPMIPATWPLASNLKKRADADLADGPVSERDNLLFRAAVRLMFSDLEPVPLKIRKGSSTCIPYFSNDMGTKIEIAERALEKAEEAGNLMLQGKFDDAYQLHQMGGAYYVVYRAQSTDAITLDPKTGKFVSKDRMVADFEYAVTGGEQGSLFAASKDASRLKEQYGIDVPDGFFCERRRTAMGGPFALNAPIMAVAQPVRNKIYSKYAYTFHHTTRLNKEEKVKEWSLCVATDVSDHDTFWPGWLRDLICDELLNMGYAPWWVKLFETSLKLPVYVGAPAPEQGHTLLGDPSNPDLEVGLSSGQGATDLMGTLLMSITYLVMQLDHTAPHLNSRIKDMPSACRFLDSYWQGHEEIRQISKSDDAILGWTKGRALVGGHRLFEMLKEGKVNPSPYMKISYEHGGAFLGDILLYDSRREPGSAIFVGNINSMLNNQFSPEYGVQSGVRDRSKRKRPFPGLAWASMKDTYGACPIYSDVLEAIERCWWNAFGESYRAYREDMLKRDTLELSRYVASMARQAGLAELTPIDLEVLADPNKLQYKWTEADVSANIHEVLMHGVSVEKTERFLRSVMPR | binds | – | – | – |
